± gives the uncertainty stated by the source.
B1: Homeobox protein cut-like 2, residues 895 to 963; numbered along this chain, O14529 (parent)
chain: EVDTLELTRQVKEKLAKNGICQRIFGEKVLGLSQGSVSDMLSRPKPWSKLTQKGREPFIRMQLWLSDQL
B2: POU domain, class 6, transcription factor 2, residues 609 to 663; numbered along this chain, P78424 (parent)
chain: KRRTSFTPQALEILNAHFEKNTHPSGQEMTEIAEKLNYDREVVRVWFCNKRQALK

Variants of: B1
Experiment: abundance fitness (aPCA) (normalised: wild type 0, dead -1); higher = more abundant; growth selection in yeast, the domain comes from the species named
Conditions: Homo sapiens

Variant	abundance fitness
L63M	0.041 ± 0.047
L63N	-0.006 ± 0.07
L63S	0.069 ± 0.032
L63I	-0.213 ± 0.059
L63A	0.058 ± 0.055
L63P	-0.728 ± 0.033
L63F	-0.274 ± 0.046
L63K	0.113 ± 0.063
L63Y	-0.115 ± 0.049
L63R	0.096 ± 0.051
L63G	-0.19 ± 0.2
L63Q	0.078 ± 0.038
L63W	-0.271 ± 0.087
L63C	-0.127 ± 0.09
L63E	0.037 ± 0.11
L63D	0.07 ± 0.12
L63V	-0.103 ± 0.06
L63T	-0.003 ± 0.038
L63H	0.012 ± 0.04
L69P	-0.163 ± 0.057
L69T	-0.199 ± 0.059
L69E	-0.068 ± 0.064
L69M	-0.007 ± 0.049
L69G	-0.056 ± 0.045
L69C	-0.054 ± 0.059

Variant	abundance fitness
L69Y	-0.096 ± 0.098
L69A	-0.164 ± 0.07
L69S	-0.052 ± 0.043
L69F	-0.083 ± 0.054
L69I	-0.221 ± 0.11
L69K	-0.041 ± 0.064
L69W	-0.137 ± 0.044
L69Q	-0.092 ± 0.074
L69D	-0.188 ± 0.18
L69H	-0.182 ± 0.17
L69N	-0.058 ± 0.13
L69R	-0.08 ± 0.04
D67N	-0.07 ± 0.13
D67R	-0.008 ± 0.083
D67L	-0.389 ± 0.028
D67F	-0.64 ± 0.045
D67H	-0.296 ± 0.13
D67I	-0.603 ± 0.074
D67E	-0.017 ± 0.12
D67A	-0.207 ± 0.1
D67M	-0.25 ± 0.04
D67Q	0.057 ± 0.068
D67K	-0.037 ± 0.078
D67W	-0.661 ± 0.1
D67Y	-0.321 ± 0.065

Variant	abundance fitness
D67S	-0.082 ± 0.042
D67G	0.009 ± 0.14
D67V	-0.549 ± 0.088
D67P	-0.209 ± 0.077
D67C	-0.576 ± 0.11
Q68G	-0.13 ± 0.03
Q68F	-0.099 ± 0.036
Q68V	-0.072 ± 0.029
Q68R	-0.057 ± 0.044
Q68L	-0.052 ± 0.03
Q68N	-0.068 ± 0.05
Q68I	-0.142 ± 0.047
Q68M	-0.022 ± 0.034
Q68E	-0.014 ± 0.039
Q68S	-0.097 ± 0.061
Q68K	0.062 ± 0.041
Q68W	-0.087 ± 0.037
Q68Y	-0.105 ± 0.044
L65Q	-0.926 ± 0.07
L65E	-1.28 ± 0.24
L65A	-0.694 ± 0.093
L65S	-0.962 ± 0.049
L65T	-0.975 ± 0.058
L65H	-0.696 ± 0.08
L65M	-0.294 ± 0.034

Variant	abundance fitness
L65R	-0.782 ± 0.055
L65P	-1.03 ± 0.051
L65G	-0.952 ± 0.14
L65K	-0.726 ± 0.045
L65Y	-0.56 ± 0.053
L65N	-0.973 ± 0.082
L65C	-0.511 ± 0.1
L65D	-0.841 ± 0.27
L65F	-0.193 ± 0.042
L65W	-0.44 ± 0.12
L65I	-0.278 ± 0.065
W64V	-1.15 ± 0.087
W64Y	-0.372 ± 0.092
W64K	-0.899 ± 0.07
W64M	-1.06 ± 0.1
W64N	-0.678 ± 0.28
W64H	-1.08 ± 0.14
W64F	-0.222 ± 0.082
W64I	-1.19 ± 0.25
W64L	-0.822 ± 0.047
W64A	-1.17 ± 0.089
W64G	-0.942 ± 0.093
W64S	-1.3 ± 0.097
W64D	-1.06 ± 0.2
W64Q	-0.907 ± 0.066

Variant	abundance fitness
W64T	-1.31 ± 0.12
W64C	-0.946 ± 0.17
W64P	-0.806 ± 0.05
W64R	-0.945 ± 0.063
S66H	0.005 ± 0.092
S66N	0.189 ± 0.076
S66K	0.109 ± 0.041
S66W	-0.08 ± 0.052
S66T	-0.008 ± 0.032
S66M	-0.085 ± 0.032
S66I	-0.039 ± 0.08
S66G	0.048 ± 0.073
S66Q	0.002 ± 0.035
S66R	0.028 ± 0.045
S66C	-0.048 ± 0.15
S66F	-0.2 ± 0.053
S66V	-0.066 ± 0.037
S66P	-0.998 ± 0.046
S66D	0.094 ± 0.24
S66Y	-0.001 ± 0.089
S66E	-0.069 ± 0.077
S66A	-0.045 ± 0.069
S66L	-0.104 ± 0.024

Variants of: B2
Experiment: as above
Conditions: Homo sapiens

Variant	abundance fitness
R3F	0.053 ± 0.11
R3A	-0.136 ± 0.076
R3C	-0.236 ± 0.12
R3Q	-0.073 ± 0.17
R3S	0.02 ± 0.078
R3W	-0.265 ± 0.088
R3G	-0.035 ± 0.059
R3K	-0.009 ± 0.14
R3I	0.136 ± 0.12
R3N	0.208 ± 0.17
R3M	0.01 ± 0.1
R3P	0.004 ± 0.1
R3E	0.043 ± 0.1
R3D	0.054 ± 0.12
R3T	-0.134 ± 0.11
R3L	0.057 ± 0.073
R3V	-0.001 ± 0.071
Q9Y	-0.088 ± 0.3
Q9H	-0.049 ± 0.24
Q9N	-0.141 ± 0.18
Q9G	-0.06 ± 0.085
Q9I	-0.057 ± 0.5
Q9W	-0.184 ± 0.16
Q9P	-0.028 ± 0.15

Variant	abundance fitness
Q9L	-0.253 ± 0.092
Q9D	-0.12 ± 0.15
Q9M	-0.041 ± 0.22
Q9S	-0.207 ± 0.096
Q9E	-0.432 ± 0.2
Q9K	-0.037 ± 0.2
Q9T	-0.106 ± 0.18
P8K	-0.138 ± 0.2
P8C	-0.023 ± 0.14
P8F	-0.147 ± 0.21
P8T	0.477 ± 0.48
P8Q	-0.365 ± 0.17
P8D	0.038 ± 0.14
P8S	0.05 ± 0.13
P8M	0.037 ± 0.17
P8I	-0.189 ± 0.24
P8N	-0.072 ± 0.29
P8H	-0.177 ± 0.33
P8V	0.004 ± 0.11
P8L	-0.057 ± 0.11
P8Y	-0.572 ± 0.28
P8R	-0.148 ± 0.1
P8W	-0.394 ± 0.13
P8A	0.022 ± 0.12

Variant	abundance fitness
T4Q	-0.203 ± 0.13
T4F	-0.333 ± 0.14
T4E	0.045 ± 0.11
T4Y	-0.15 ± 0.18
T4I	-0.364 ± 0.22
T4K	-0.123 ± 0.15
T4S	-0.001 ± 0.093
T4G	-0.089 ± 0.081
T4D	-0.083 ± 0.16
T4H	-0.028 ± 0.26
T4L	-0.063 ± 0.079
T4V	-0.106 ± 0.079
T4M	-0.148 ± 0.16
T4C	-0.058 ± 0.17
T4A	-0.09 ± 0.079
T4R	-0.204 ± 0.071
K1T	-0.077 ± 0.19
K1H	-0.309 ± 0.2
K1V	-0.776 ± 0.3
K1G	0.157 ± 0.18
K1A	-0.19 ± 0.24
K1S	-0.275 ± 0.14
K1L	-0.465 ± 0.24
K1I	0.111 ± 0.2

Variant	abundance fitness
K1D	-0.161 ± 0.15
K1N	0.043 ± 0.14
K1W	-0.267 ± 0.16
K1R	-0.269 ± 0.12
K1Y	-0.41 ± 0.34
K1E	-0.632 ± 0.22
S5G	0.041 ± 0.055
S5T	0.12 ± 0.11
S5N	-0.075 ± 0.12
S5R	-0.113 ± 0.058
S5M	-0.127 ± 0.1
S5I	0.079 ± 0.12
S5D	-0.063 ± 0.097
S5A	0.019 ± 0.093
S5K	0.035 ± 0.12
S5W	-0.11 ± 0.082
S5Q	0.221 ± 0.14
S5P	-0.032 ± 0.12
S5C	-0.039 ± 0.084
S5F	-0.031 ± 0.13
S5H	-0.245 ± 0.13
S5V	0.015 ± 0.074
S5Y	-0.147 ± 0.1
S5L	-0.06 ± 0.071

Variant	abundance fitness
S5E	0.083 ± 0.079
L14I	-0.898 ± 0.23
L14D	-0.972 ± 0.2
L14G	-0.919 ± 0.08
L14A	-0.969 ± 0.14
L14F	-0.877 ± 0.24
L14C	-0.734 ± 0.19
L14E	-1.07 ± 0.19
L14H	-0.788 ± 0.31
L14K	-0.874 ± 0.34
F6W	-0.025 ± 0.098
F6M	-0.042 ± 0.12
F6L	0.135 ± 0.076
F6Q	-0.28 ± 0.14
F6Y	-0.187 ± 0.14
F6D	-0.246 ± 0.13
F6G	-0.326 ± 0.067
F6N	-0.267 ± 0.19
F6A	-0.354 ± 0.092
F6R	-0.423 ± 0.076
F6I	0.092 ± 0.1
F6S	-0.415 ± 0.086
F6C	-0.15 ± 0.09
F6E	-0.191 ± 0.11

Variant	abundance fitness
F6T	-0.134 ± 0.11
F6P	0.039 ± 0.17
F6H	-0.272 ± 0.15
T7N	-0.303 ± 0.3
T7C	-0.079 ± 0.1
T7L	-0.288 ± 0.08
T7R	-0.321 ± 0.087
T7Y	-0.637 ± 0.17
T7I	-0.615 ± 0.2
T7M	-0.395 ± 0.14
T7S	-0.042 ± 0.09
T7D	-0.402 ± 0.22
T7H	-0.226 ± 0.18
T7W	-0.409 ± 0.089
T7F	-0.867 ± 0.26
T7G	-0.007 ± 0.093
T7K	-0.565 ± 0.17
T7V	-0.403 ± 0.098
T7A	-0.2 ± 0.18
T7P	0.04 ± 0.13
T7E	0.05 ± 0.13
E12V	-0.331 ± 0.15
E12W	-0.233 ± 0.16
E12C	-0.261 ± 0.15

Variant	abundance fitness
E12K	-0.695 ± 0.4
E12D	-0.002 ± 0.3
E12P	-0.724 ± 0.18
E12R	-0.107 ± 0.089
E12Q	-0.298 ± 0.28
E12S	-0.009 ± 0.12
E12A	-0.401 ± 0.14
E12M	-0.222 ± 0.19
E12G	-0.105 ± 0.11
E12L	-0.403 ± 0.11
I13A	-0.01 ± 0.12
I13E	-0.251 ± 0.21
I13T	-0.003 ± 0.19
I13Y	0.002 ± 0.15
I13H	-0.172 ± 0.27
I13C	-0.113 ± 0.18
I13F	-0.113 ± 0.18
I13M	-0.218 ± 0.12
I13Q	-0.132 ± 0.22
I13L	-0.017 ± 0.13
I13P	-0.98 ± 0.31
I13W	-0.219 ± 0.14
I13S	-0.279 ± 0.14
I13G	-0.385 ± 0.099

Variant	abundance fitness
L11P	-1.01 ± 0.24
L11Y	-0.339 ± 0.21
L11M	-0.092 ± 0.14
L11Q	-0.435 ± 0.16
L11V	0.053 ± 0.095
L11G	-0.477 ± 0.075
L11E	-0.002 ± 0.12
L11A	-0.279 ± 0.1
L11S	-0.283 ± 0.1
L11D	-0.622 ± 0.25
L11R	-0.222 ± 0.074
L11H	-0.482 ± 0.24
L11C	-0.409 ± 0.14
L11F	-0.498 ± 0.24
R2C	-0.345 ± 0.11
R2M	0.064 ± 0.11
R2F	-0.056 ± 0.14
R2A	0.038 ± 0.085
R2S	0.106 ± 0.089
R2W	-0.334 ± 0.087
R2Q	0.026 ± 0.17
R2I	-0.059 ± 0.12
R2E	0.108 ± 0.12
R2H	-0.144 ± 0.26

Variant	abundance fitness
R2N	0.095 ± 0.1
R2G	-0.034 ± 0.065
R2P	-0.118 ± 0.13
R2T	0.041 ± 0.089
A10R	-0.904 ± 0.14
A10N	-0.106 ± 0.28
A10L	-0.51 ± 0.13
A10K	-0.587 ± 0.33
A10S	-0.262 ± 0.15
A10F	-0.538 ± 0.22
A10Q	-0.107 ± 0.17
A10D	-0.015 ± 0.15
A10W	-0.87 ± 0.27
A10V	-0.227 ± 0.13
A10G	-0.087 ± 0.12
A10C	-0.154 ± 0.23
A10E	0.062 ± 0.14
A10Y	-0.76 ± 0.29
A10M	-0.206 ± 0.2

Source: the Human Domainome abundance scans (Beltran et al. 2025)
